Reference: patent US20130280276A1 (Daiichi Sankyo, published 2013)

B1: MOR09898 (antibody, human IgG2, lambda, V domains shown)
VH: QVQLVESGGGLVQPGGSLRLSCAASGFTFSNYWMTWVRQAPGKGLEWVSFISYSGSTTYYADSVKGRFTISRDNSKNTLYLQMNSLRAEDTAVYYCAREGTSSMFDVWGQGTLVTVSS
VL: DIELTQPPSVSVAPGQTARISCSGDALRSYYASWYQQKPGQAPVLVIYDDNKRPSGIPERFSGSNSGNTATLTISGTQAEDEADYYCASFTYMSDFVFGGGTKLTVLG
B2: MOR09281 (antibody, human IgG2, lambda, V domains shown)
VH: QVQLVESGGGLVQPGGSLRLSCAASGFTFSNYWMSWVRQAPGKGLEWVSLISYSGSTTYYADSVKGRFTISRDNSKNTLYLQMNSLRAEDTAVYYCARDTPIGMDFWGQGTLVTVSS
VL: DIELTQPPSVSVAPGQIARISCSGDNLGSYYAYWYQQKPGQAPVLVIYGDNDRPSGIPERFSGSNSGNTATLTISGTQAEDEADYYCSSYDIVQPYVFGGGTKLTVLG
B3: MOR09892 (antibody, human IgG2, lambda, V domains shown)
VH: QVQLVESGGGLVQPGGSLRLSCAASGFTFSSYAMHWVRQAPGKGLEWVSYISYSGSNTYYADSVKGRFTISRDNSKNTLYLQMNSLRAEDTAVYYCARGWGGFDYWGQGTLVTVSS
VL: DIELTQPPSVSVAPGQTARISCSGDNLPNRYVHWYQQKPGQAPVLVIYDDNNRPSGIPERFSGSNSGNTATLTISGTQAEDEADYYCQSRDLHYSPVFGGGTKLTVLG
B4: MOR10110 (antibody, human IgG2, lambda, V domains shown)
VH: QVQLVESGGGLVQPGGSLRLSCAASGFTFTNYAMNWVRQAPGKGLEWVSYISYSSSNTYYADSVKGRFTISRDNSKNTLYLQMNSLRAEDTAVYYCARGAGLGYDVWGQGTLVTVSS
VL: DIELTQPPSVSVAPGQTARISCSGDNLRSKYVYWYQQKPGQAPVLVIYDTNDRPSGIPERFSGSNSGNTATLTISGTQAEDEADYYCQTYDMTSQDVFGGGTKLTVLG

Molecular target: mouse Siglec-15 (mouse)
Assay: cell-based or functional assay

TRAP activity of mouse osteoclasts formed (RANKL-stimulated mouse bone marrow nonadherent cells), ≥ 13 ng/mL:
B1
B2
B3
B4
